# Experimental data taken from patent publication US20260167699A1 (Chugai, published 2026).
# B1: GpH7-A5/GpH7-B3 variant T335_14T/GpL16-k0 (antibody, human IgG1, kappa)
# heavy 1: not shown
# heavy 2: not shown
# light: DIVMTQSPLSLPVTPGEPASISCQASESLVHSNRNTYLHWYLQKPGQSPQLLIYKVSNRFSGVPDRFSGSGSGTDFTLKISRVEAEDVGVYYCSQNTHVPPTFGQGTKVEIERTVAAPSVFIFPPSDEQLKSGTASVVCLLNNFYPREAKVQWKVDNALQSGNSQESVTEQDSKDSTYSLSSTLTLSKADYEKHKVYACEVTHQGLSSPVTKSFNRGEC
# B2: GpH7-A5/GpH7-B3 variant E333_08L/GpL16-k0 (antibody, human IgG1, kappa)
# heavy 1: not shown
# heavy 2: not shown
# light: B1 light
# notes: copies: 1 + 1 + 2
# B3: GpH7-A5/GpH7-B3 variant E333_07I/GpL16-k0 (antibody, human IgG1, kappa)
# heavy 1: not shown
# heavy 2: not shown
# light: B1 light
# notes: copies: 1 + 1 + 2
# B4: GpH7-A5/GpH7-B3 variant A330_06M/GpL16-k0 (antibody, human IgG1, kappa)
# heavy 1: not shown
# heavy 2: not shown
# light: B1 light
# notes: copies: 1 + 1 + 2
# B5: GpH7-A5/GpH7-B3 variant A330_04F/GpL16-k0 (antibody, human IgG1, kappa)
# heavy 1: not shown
# heavy 2: not shown
# light: B1 light
# notes: copies: 1 + 1 + 2
# B6: GpH7-A5/GpH7-B3 variant A330_14T/GpL16-k0 (antibody, human IgG1, kappa)
# heavy 1: not shown
# heavy 2: not shown
# light: B1 light
# notes: copies: 1 + 1 + 2
# B7: GpH7-A5/GpH7-B3 variant A327_13S/GpL16-k0 (antibody, human IgG1, kappa)
# heavy 1: not shown
# heavy 2: not shown
# light: B1 light
# notes: copies: 1 + 1 + 2
# B8: GpH7-A5/GpH7-B3 variant A330_15Y/GpL16-k0 (antibody, human IgG1, kappa)
# heavy 1: not shown
# heavy 2: not shown
# light: B1 light
# notes: copies: 1 + 1 + 2
# B9: GpH7-A5/GpH7-B3 variant A330_08L/GpL16-k0 (antibody, human IgG1, kappa)
# heavy 1: not shown
# heavy 2: not shown
# light: B1 light
# notes: copies: 1 + 1 + 2
# B10: GpH7-A5/GpH7-B3 variant E333_11K/GpL16-k0 (antibody, human IgG1, kappa)
# heavy 1: not shown
# heavy 2: not shown
# light: B1 light
# notes: copies: 1 + 1 + 2
# B11: GpH7-A5/GpH7-B3 variant E333_04F/GpL16-k0 (antibody, human IgG1, kappa)
# heavy 1: not shown
# heavy 2: not shown
# light: B1 light
# notes: copies: 1 + 1 + 2
# B12: GpH7-A5/GpH7-B3 variant E333_06M/GpL16-k0 (antibody, human IgG1, kappa)
# heavy 1: not shown
# heavy 2: not shown
# light: B1 light
# notes: copies: 1 + 1 + 2
# B13: GpH7-A5/GpH7-B3 variant D270_13S/GpL16-k0 (antibody, human IgG1, kappa)
# heavy 1: not shown
# heavy 2: not shown
# light: B1 light
# notes: copies: 1 + 1 + 2
# B14: GpH7-A5/GpH7-B3 variant E333_01G/GpL16-k0 (antibody, human IgG1, kappa)
# heavy 1: not shown
# heavy 2: not shown
# light: B1 light
# notes: copies: 1 + 1 + 2
# B15: GpH7-A5/GpH7-B3 variant A330_11K/GpL16-k0 (antibody, human IgG1, kappa)
# heavy 1: not shown
# heavy 2: not shown
# light: B1 light
# notes: copies: 1 + 1 + 2
# B16: GpH7-A5/GpH7-B3 variant E269_15Y/GpL16-k0 (antibody, human IgG1, kappa)
# heavy 1: not shown
# heavy 2: not shown
# light: B1 light
# notes: copies: 1 + 1 + 2
# B17: GpH7-A5/GpH7-B3 variant E333_05P/GpL16-k0 (antibody, human IgG1, kappa)
# heavy 1: not shown
# heavy 2: not shown
# light: B1 light
# notes: copies: 1 + 1 + 2
# B18: GpH7-A5/GpH7-B3 variant A330_18N/GpL16-k0 (antibody, human IgG1, kappa)
# heavy 1: not shown
# heavy 2: not shown
# light: B1 light
# notes: copies: 1 + 1 + 2
# B19: GpH7-A5/GpH7-B3 variant D270_18N/GpL16-k0 (antibody, human IgG1, kappa)
# heavy 1: not shown
# heavy 2: not shown
# light: B1 light
# notes: copies: 1 + 1 + 2
# B20: GpH7-A5/GpH7-B3 variant E269_09D/GpL16-k0 (antibody, human IgG1, kappa)
# heavy 1: not shown
# heavy 2: not shown
# light: B1 light
# notes: copies: 1 + 1 + 2
# B21: GpH7-A5/GpH7-B3 variant D270_07I/GpL16-k0 (antibody, human IgG1, kappa)
# heavy 1: not shown
# heavy 2: not shown
# light: B1 light
# notes: copies: 1 + 1 + 2
# B22: GpH7-A5/GpH7-B3 variant A330_12R/GpL16-k0 (antibody, human IgG1, kappa)
# heavy 1: not shown
# heavy 2: not shown
# light: B1 light
# notes: copies: 1 + 1 + 2
# B23: GpH7-A5/GpH7-B3 variant D270_06M/GpL16-k0 (antibody, human IgG1, kappa)
# heavy 1: not shown
# heavy 2: not shown
# light: B1 light
# notes: copies: 1 + 1 + 2
# B24: GpH7-A5/GpH7-B3 variant A327_10E/GpL16-k0 (antibody, human IgG1, kappa)
# heavy 1: not shown
# heavy 2: not shown
# light: B1 light
# notes: copies: 1 + 1 + 2
# B25: GpH7-A5/GpH7-B3 variant E269_07I/GpL16-k0 (antibody, human IgG1, kappa)
# heavy 1: not shown
# heavy 2: not shown
# light: B1 light
# notes: copies: 1 + 1 + 2
# B26: GpH7-A5/GpH7-B3 variant E269_02A/GpL16-k0 (antibody, human IgG1, kappa)
# heavy 1: not shown
# heavy 2: not shown
# light: B1 light
# notes: copies: 1 + 1 + 2
# B27: GpH7-A5/GpH7-B3 variant E269_08L/GpL16-k0 (antibody, human IgG1, kappa)
# heavy 1: not shown
# heavy 2: not shown
# light: B1 light
# notes: copies: 1 + 1 + 2
# B28: GpH7-A5/GpH7-B3 variant A327_06M/GpL16-k0 (antibody, human IgG1, kappa)
# heavy 1: not shown
# heavy 2: not shown
# light: B1 light
# notes: copies: 1 + 1 + 2
# B29: GpH7-A5/GpH7-B3 variant A330_20W/GpL16-k0 (antibody, human IgG1, kappa)
# heavy 1: not shown
# heavy 2: not shown
# light: B1 light
# notes: copies: 1 + 1 + 2
# B30: GpH7-A5/GpH7-B3 variant A330_01G/GpL16-k0 (antibody, human IgG1, kappa)
# heavy 1: not shown
# heavy 2: not shown
# light: B1 light
# notes: copies: 1 + 1 + 2
# Biological target: T1, FcγRIIIa (human, UniProt P08637 17-208)
# T1 construct: extracellular domain; also called 3a; FcγRIIIa extracellular domain
# Experiment: SPR (Biacore);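 further: antibody variants captured on an SPR sensor chip, with FcγRIIIa passed over as analyte in HBS-EP+ buffer at 25 °C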
# T1 sequence (P08637 other isoform, or with tags, fused parts or gaps): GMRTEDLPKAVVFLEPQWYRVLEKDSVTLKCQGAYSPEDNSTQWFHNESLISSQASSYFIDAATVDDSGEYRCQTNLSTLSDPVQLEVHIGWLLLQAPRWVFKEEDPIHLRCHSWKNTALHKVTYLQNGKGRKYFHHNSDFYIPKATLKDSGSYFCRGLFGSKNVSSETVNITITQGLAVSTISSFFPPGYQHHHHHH
row,Binder,He/Con 3a
1,B1,104 % of GpH7-A5/GpH7-B3/GpL16-k0
2,B2,102 % of GpH7-A5/GpH7-B3/GpL16-k0
3,B3,100 % of GpH7-A5/GpH7-B3/GpL16-k0
4,B4,139 % of GpH7-A5/GpH7-B3/GpL16-k0
5,B5,144 % of GpH7-A5/GpH7-B3/GpL16-k0
6,B6,85.8 % of GpH7-A5/GpH7-B3/GpL16-k0
7,B7,66.7 % of GpH7-A5/GpH7-B3/GpL16-k0
8,B8,122 % of GpH7-A5/GpH7-B3/GpL16-k0
9,B9,122 % of GpH7-A5/GpH7-B3/GpL16-k0
10,B10,97.7 % of GpH7-A5/GpH7-B3/GpL16-k0
11,B11,104 % of GpH7-A5/GpH7-B3/GpL16-k0
12,B12,100 % of GpH7-A5/GpH7-B3/GpL16-k0
13,B13,51.4 % of GpH7-A5/GpH7-B3/GpL16-k0
14,B14,101 % of GpH7-A5/GpH7-B3/GpL16-k0
15,B15,91.8 % of GpH7-A5/GpH7-B3/GpL16-k0
16,B16,51.5 % of GpH7-A5/GpH7-B3/GpL16-k0
17,B17,100 % of GpH7-A5/GpH7-B3/GpL16-k0
18,B18,67.3 % of GpH7-A5/GpH7-B3/GpL16-k0
19,B19,51.2 % of GpH7-A5/GpH7-B3/GpL16-k0
20,B20,106 % of GpH7-A5/GpH7-B3/GpL16-k0
21,B21,63.1 % of GpH7-A5/GpH7-B3/GpL16-k0
22,B22,77.3 % of GpH7-A5/GpH7-B3/GpL16-k0
23,B23,60 % of GpH7-A5/GpH7-B3/GpL16-k0
24,B24,70.5 % of GpH7-A5/GpH7-B3/GpL16-k0
25,B25,55.3 % of GpH7-A5/GpH7-B3/GpL16-k0
26,B26,68 % of GpH7-A5/GpH7-B3/GpL16-k0
27,B27,51.5 % of GpH7-A5/GpH7-B3/GpL16-k0
28,B28,54 % of GpH7-A5/GpH7-B3/GpL16-k0
29,B29,102 % of GpH7-A5/GpH7-B3/GpL16-k0
30,B30,87.3 % of GpH7-A5/GpH7-B3/GpL16-k0
